Where a chain is given by its changes, count along the chain named. Names may count otherwise.
B1: PgDHAR (Cenchrus americanus) (protein)
chain: MAVEVCVKAAVGAPDILGDCPFSQRVLLTLEEKKITYEMKLVDLSNKPEWFLKISPEGKVPVFNSGDGKWIADSDVITQVIEEKFPTPSLVTPPEYASVGSKIFPSFVKFLKSKDASDGSEKALLDELQALDEHLKAHGPYISGENVSAADLSLGPKLFHLQVALEHFKGWKIPENLTSVHAYTKALFSRESFVKTKPANQYLIAGWAPKVNA
B2: PgDHAR (Cenchrus americanus; K8A) (protein)
chain: B1 chain with K8A
B3: PgDHAR (Cenchrus americanus; D19A) (protein)
chain: B1 chain with D19A
B4: HsGSTO1-1 (Homo sapiens) (protein)
chain: SGESARSLGKGSAPPGPVPEGSIRIYSMRFCPFAERTRLVLKAKGIRHEVININLKNKPEWFFKKNPFGLVPVLENSQGQLIYESAITCEYLDEAYPGKKLLPDDPYEKACQKMILELFSKVPSLVGSFIRSQNKEDYAGLKEEFRKEFTKLEEVLTNKKTTFFGGNSISMIDYLIWPWFERLEAMKLNECVDHTPKLKLWMAAMKEDPTVSALLTSEKDWQGFLELYLQNSPEACDYGL

Substrate: O=C1O[C@H]([C@@H](O)CO)C(=O)C1=O
Assay: purified protein
[1] = co-substrate GSH (2 mM), 50 mM phosphate pH 6.8, 0.2 mM EDTA
[2] = co-substrate GSH, 50 mM phosphate pH 6.8, 0.2 mM EDTA

Protein	Km [1]	kcat [1] [min⁻¹]	Km [2]	kcat [2] [min⁻¹]	Km (co-substrate GSH, marked 'This study' (footnote a))
B1	159.2 (±11.4) μM	136299.8			
B2			1842 (±414.3) μM	5360.4	
B3			245.7 (±75.7) μM	1221	
B4					138.2 (±27.07) μM
